Results published in PMC9669585.

Biological target: mCherry-PEX5(TPR) (human) (UniProt P50542)
Assay: FRET or BRET; flowFRET competition in living pex5-/- MEF; mCherry-PEX5(TPR) as acceptor, EGFP-PTS1(SCP2) as donor, Cerulean-tagged protein as competitor; apparent KD1^app and KD2^app by fitting, plotted as Log10(KD2^app)/Log10(KD1^app)

- Log10(KD2^app)/Log10(KD1^app) against the donor EGFP-PTS1(SCP2): 1
Substance: Cerulean-PTS1(SCP2) (peptide)
